According to publication PMC3416963:

Substrate: O=C(O)c1cc(C(=O)O)oc(=O)c1
Assay: purified protein
Type: biochemical, Sphingobium sp. SYK-6
Conditions: 50 mM BICINE pH 8.25, 30 °C

B1: LigI (Sphingobium sp. SYK-6; H178A) (protein)
chain: TNDERILSWNETPSKPRYTPPPGAIDAHCHVFGPMAQFPFSPKAKYLPRDAGPDMLFALRDHLGFARNVIVQASCHGTDNAATLDAIARAQGKARGIAVVDPAIDEAELAALHEGGMRGIRFNFLKRLVDDAPKDKFLEVAGRLPAGWHVVIYFEADILEELRPFMDAIPVPIVIDAMGRPDVRQGPDGADMKAFRRLLDSREDIWFKATCPDRLDPAGPPWDDFARSVAPLVADYADRVIWGTDWPHPNMQDAIPDDGLVVDMIPRIAPTPELQHKMLVTNPMRLYWSEEM
  Km: 214 ± 44 µM
  kcat: 8 ± 0.9 s⁻¹
  kcat/Km: 37000 ± 4000 M⁻¹ s⁻¹

B2: LigI (Sphingobium sp. SYK-6; D246N) (protein)
chain: TNDERILSWNETPSKPRYTPPPGAIDAHCHVFGPMAQFPFSPKAKYLPRDAGPDMLFALRDHLGFARNVIVQASCHGTDNAATLDAIARAQGKARGIAVVDPAIDEAELAALHEGGMRGIRFNFLKRLVDDAPKDKFLEVAGRLPAGWHVVIYFEADILEELRPFMDAIPVPIVIDHMGRPDVRQGPDGADMKAFRRLLDSREDIWFKATCPDRLDPAGPPWDDFARSVAPLVADYADRVIWGTNWPHPNMQDAIPDDGLVVDMIPRIAPTPELQHKMLVTNPMRLYWSEEM
  Km: 66 ± 13 µM
  kcat: 0.023 ± 0.001 s⁻¹
  kcat/Km: 200 ± 34 M⁻¹ s⁻¹

B3: LigI (Sphingobium sp. SYK-6; Y47F) (protein)
chain: TNDERILSWNETPSKPRYTPPPGAIDAHCHVFGPMAQFPFSPKAKFLPRDAGPDMLFALRDHLGFARNVIVQASCHGTDNAATLDAIARAQGKARGIAVVDPAIDEAELAALHEGGMRGIRFNFLKRLVDDAPKDKFLEVAGRLPAGWHVVIYFEADILEELRPFMDAIPVPIVIDHMGRPDVRQGPDGADMKAFRRLLDSREDIWFKATCPDRLDPAGPPWDDFARSVAPLVADYADRVIWGTDWPHPNMQDAIPDDGLVVDMIPRIAPTPELQHKMLVTNPMRLYWSEEM
  Km: 217 ± 41 µM
  kcat: 26 ± 2 s⁻¹
  kcat/Km: 120000 ± 2000 M⁻¹ s⁻¹

B4: LigI (Sphingobium sp. SYK-6; H29N) (protein)
chain: TNDERILSWNETPSKPRYTPPPGAIDANCHVFGPMAQFPFSPKAKYLPRDAGPDMLFALRDHLGFARNVIVQASCHGTDNAATLDAIARAQGKARGIAVVDPAIDEAELAALHEGGMRGIRFNFLKRLVDDAPKDKFLEVAGRLPAGWHVVIYFEADILEELRPFMDAIPVPIVIDHMGRPDVRQGPDGADMKAFRRLLDSREDIWFKATCPDRLDPAGPPWDDFARSVAPLVADYADRVIWGTDWPHPNMQDAIPDDGLVVDMIPRIAPTPELQHKMLVTNPMRLYWSEEM
  Km: 720 ± 122 µM
  kcat: 0.4 ± 0.04 s⁻¹
  kcat/Km: 500 ± 37 M⁻¹ s⁻¹

B5: LigI (Sphingobium sp. SYK-6; H31N) (protein)
chain: TNDERILSWNETPSKPRYTPPPGAIDAHCNVFGPMAQFPFSPKAKYLPRDAGPDMLFALRDHLGFARNVIVQASCHGTDNAATLDAIARAQGKARGIAVVDPAIDEAELAALHEGGMRGIRFNFLKRLVDDAPKDKFLEVAGRLPAGWHVVIYFEADILEELRPFMDAIPVPIVIDHMGRPDVRQGPDGADMKAFRRLLDSREDIWFKATCPDRLDPAGPPWDDFARSVAPLVADYADRVIWGTDWPHPNMQDAIPDDGLVVDMIPRIAPTPELQHKMLVTNPMRLYWSEEM
  Km: 89 ± 20 µM
  kcat: 3.6 ± 0.3 s⁻¹
  kcat/Km: 41000 ± 6000 M⁻¹ s⁻¹

B6: LigI (Sphingobium sp. SYK-6; H178C) (protein)
chain: TNDERILSWNETPSKPRYTPPPGAIDAHCHVFGPMAQFPFSPKAKYLPRDAGPDMLFALRDHLGFARNVIVQASCHGTDNAATLDAIARAQGKARGIAVVDPAIDEAELAALHEGGMRGIRFNFLKRLVDDAPKDKFLEVAGRLPAGWHVVIYFEADILEELRPFMDAIPVPIVIDCMGRPDVRQGPDGADMKAFRRLLDSREDIWFKATCPDRLDPAGPPWDDFARSVAPLVADYADRVIWGTDWPHPNMQDAIPDDGLVVDMIPRIAPTPELQHKMLVTNPMRLYWSEEM
  Km: 41 ± 7 µM
  kcat: 32 ± 4 s⁻¹
  kcat/Km: 780000 ± 50000 M⁻¹ s⁻¹

B7: LigI (Sphingobium sp. SYK-6; Y154F) (protein)
chain: TNDERILSWNETPSKPRYTPPPGAIDAHCHVFGPMAQFPFSPKAKYLPRDAGPDMLFALRDHLGFARNVIVQASCHGTDNAATLDAIARAQGKARGIAVVDPAIDEAELAALHEGGMRGIRFNFLKRLVDDAPKDKFLEVAGRLPAGWHVVIFFEADILEELRPFMDAIPVPIVIDHMGRPDVRQGPDGADMKAFRRLLDSREDIWFKATCPDRLDPAGPPWDDFARSVAPLVADYADRVIWGTDWPHPNMQDAIPDDGLVVDMIPRIAPTPELQHKMLVTNPMRLYWSEEM
  Km: 238 ± 19 µM
  kcat: 8.7 ± 0.3 s⁻¹
  kcat/Km: 37000 ± 200 M⁻¹ s⁻¹

B8: LigI (Sphingobium sp. SYK-6; R128M) (protein)
chain: TNDERILSWNETPSKPRYTPPPGAIDAHCHVFGPMAQFPFSPKAKYLPRDAGPDMLFALRDHLGFARNVIVQASCHGTDNAATLDAIARAQGKARGIAVVDPAIDEAELAALHEGGMRGIRFNFLKMLVDDAPKDKFLEVAGRLPAGWHVVIYFEADILEELRPFMDAIPVPIVIDHMGRPDVRQGPDGADMKAFRRLLDSREDIWFKATCPDRLDPAGPPWDDFARSVAPLVADYADRVIWGTDWPHPNMQDAIPDDGLVVDMIPRIAPTPELQHKMLVTNPMRLYWSEEM
  Km: 465 ± 104 µM
  kcat: 5 ± 0.4 s⁻¹
  kcat/Km: 11000 ± 7000 M⁻¹ s⁻¹

B9: LigI (Sphingobium sp. SYK-6; R122M) (protein)
chain: TNDERILSWNETPSKPRYTPPPGAIDAHCHVFGPMAQFPFSPKAKYLPRDAGPDMLFALRDHLGFARNVIVQASCHGTDNAATLDAIARAQGKARGIAVVDPAIDEAELAALHEGGMRGIMFNFLKRLVDDAPKDKFLEVAGRLPAGWHVVIYFEADILEELRPFMDAIPVPIVIDHMGRPDVRQGPDGADMKAFRRLLDSREDIWFKATCPDRLDPAGPPWDDFARSVAPLVADYADRVIWGTDWPHPNMQDAIPDDGLVVDMIPRIAPTPELQHKMLVTNPMRLYWSEEM
  Km: 90 ± 15 µM
  kcat: 0.02 ± 0.001 s⁻¹
  kcat/Km: 200 ± 22 M⁻¹ s⁻¹
